B1: Ankfy1 (protein, UniProt Q810B6 2-1169, looked up)
Rabankyrin-5: AEEEVAKLEKHLMLLRQEYVKLQKKLAETEKRCTLLAAQANKENSNESFISRLLAIVAGLYEQEQYSDLKIKVGDRHISAHKFVLAARSDSWSLANLSSTEEIDLSDANPEVTMTMLRWIYTDELEFREDDVFLTELMKLANRFQLQLLRERCEKGVMSLVNVRNCIRFYQTAEELNASTLMNYCAEIIASHWDDLRKEDFSSLSAQLLYKMIKSKTEYPLHKAIKVEREDVVFLYLIEMDSQLPGKLNETDHNGDLALDLALSRRLESIATTLVSHKADVDMVDKNGWSLLHKGIQRGDLFASTFLIKNGALVNAATAGAQETPLHLVALYSPKKYSADVMSEMAQIAEALLQAGANPNMQDSKGRTPLHLSIMARNDCVFSQLLQCKQLDLELKDHEGSTALWLAVQYITVSSDQSVNPFEDLPVVNGTSFDENSFAARLIQRGSNTDAPDVMTGNCLLQRAAGAGNEAAALFLATSGAHANHRNKWGETPLHTACRHGLANLTAELLQQGANPNLQTEEALPVPKESPVLMSSADSIYLQTPLHMAIAYNHPDVVSVILEQKANALHATNNLQIIPDFSLKDSRDQTVLGLALWTGMHTIAAQLLGSGASINDTMSDGQTLLHMAIQRQDSKSALFLLEHQADINVRTQDGETALQLAIKHQLPLVVDAICTRGADMSVPDEKGNPPLWLALASNLEDIASTLVRHGCDATCWGPGPSGCLQTLLHRAVDENNESTACFLIRSGCDVNSPRQPGTNGEGEEEARDGQTPLHLAASWGLEETVQCLLEFGANVNAQDAEGRTPVHVAISNQHSVIIQLLISHPNIELSVRDRQGLTPFACAMTYKNNKAAEAILKRESGAAEQVDNKGRNFLHVAVQNSDIESVLFLISVQANVNSRVQDASKLTPLHLAVQAGSEIIVRNLLLAGAKVNELTKHRQTALHLAAQQDLPTICSVLLENGVDFAAVDENGNNALHLAVMHGRLNNIRALLTECTVDAEAFNLRGQSPLHILGQYGKENAAAIFDLFLECMPEYPLDKPDAEGNTVLLLAYMKGNANLCRAIVRSGVRLGVNNNQGVNIFNYQVATKQLLFRLLDMLSKEPPWCDGSNCYECTAKFGVTTRKHHCRHCGRLLCHKCSTKEIPIIKFDLNKPVRVCNICFDVLTLGGVS
B2: Nectin2 (protein, UniProt Q92692 32-538, looked up)
Nectin-2: QDVRVQVLPEVRGQLGGTVELPCHLLPPVPGLYISLVTWQRPDAPANHQNVAAFHPKMGPSFPSPKPGSERLSFVSAKQSTGQDTEAELQDATLALHGLTVEDEGNYTCEFATFPKGSVRGMTWLRVIAKPKNQAEAQKVTFSQDPTTVALCISKEGRPPARISWLSSLDWEAKETQVSGTLAGTVTVTSRFTLVPSGRADGVTVTCKVEHESFEEPALIPVTLSVRYPPEVSISGYDDNWYLGRTDATLSCDVRSNPEPTGYDWSTTSGTFPTSAVAQGSQLVIHAVDSLFNTTFVCTVTNAVGMGRAEQVIFVRETPNTAGAGATGGIIGGIIAAIIATAVAATGILICRQQRKEQTLQGAEEDEDLEGPPSYKPPTPKAKLEAQEMPSQLFTLGASEHSPLKTPYFDAGASCTEQEMPRYHELPTLEERSGPLHPGATSLGSPIPVPPGPPAVEDVSLDLEDEEGEEEEEYLDKINPIYDALSYSSPSDSYQGKGFVMSRAMYV
B3: Steap3 (protein, UniProt Q8CI59 1-488, looked up)
Metalloreductase STEAP3: MSGEMDKPLISRRLVDSDGSLAEVPKEAPKVGILGSGDFARSLATRLVGSGFSVVVGSRNPKRTAGLFPSLAQVTFQEEAVSSPEVIFVAVFREHYSSLCSLADQLAGKILVDVSNPTEKEHLQHRQSNAEYLASLFPACTVVKAFNVISAWALQAGPRDGNRQVLICSDQPEAKRTISEMARAMGFTPLDMGSLASAREVEAIPLRLLPSWKVPTLLALGLFVCFYTYNFIRDVLQPYIRKDENKFYKMPLSVVNTTLPCVAYVLLSLVYLPGVLAAALQLRRGTKYQRFPDWLDHWLQHRKQIGLLSFFFAMLHALYSFCLPLRRSHRYDLVNLAVKQVLANKSRLWVEEEVWRMEIYLSLGVLALGMLSLLAVTSLPSIANSLNWKEFSFVQSTLGFVALILSTMHTLTYGWTRAFEENHYKFYLPPTFTLTLLLPCVIILAKGLFLLPCLSRRLTKIRRGWEKDGAVKFMLPGDHTQGEKTSHV
B4: Nif3l1 (protein, UniProt Q9EQ80 1-376, looked up)
NIF3-like protein 1: MLSSAHLVPTSVQRAQSWICRSSRSFMDLKALLSSLNDFASLSFAESWDNVGLLVEPSPPHTVNTLFLTNDLTEEVMDEALQKKADFILSYHPPIFRPMKHITWKTWKECLVIRALENRVAVYSPHTAYDAAPQGVNSWLAKGLGTCTTRPIHPSRAPDYPTEGAHRLEFSVNRSQDLDKVMSTLRGVGGVSVTSFPARCDGEEQTRISLNCTQKTLMQVLAFLSQDRQLYQKTEILSLEKPLLLHTGMGRLCTLDESVSLAIMIERIKTHLKLSHLRLALGVGRTLESQVKVVALCAGSGGSVLQGVEADLYLTGEMSHHDVLDAASKGINVILCEHSNTERGFLSELQEMLGVHFENKINIILSETDRDPLRVV
B5: Aldh2 (protein, UniProt P47738 20-519, looked up)
Aldehyde dehydrogenase, …: SAAATSAVPAPNHQPEVFCNQIFINNEWHDAVSRKTFPTVNPSTGEVICQVAEGNKEDVDKAVKAARAAFQLGSPWRRMDASDRGRLLYRLADLIERDRTYLAALETLDNGKPYVISYLVDLDMVLKCLRYYAGWADKYHGKTIPIDGDFFSYTRHEPVGVCGQIIPWNFPLLMQAWKLGPALATGNVVVMKVAEQTPLTALYVANLIKEAGFPPGVVNIVPGFGPTAGAAIASHEGVDKVAFTGSTEVGHLIQVAAGSSNLKRVTLELGGKSPNIIMSDADMDWAVEQAHFALFFNQGQCCCAGSRTFVQENVYDEFVERSVARAKSRVVGNPFDSRTEQGPQVDETQFKKILGYIKSGQQEGAKLLCGGGAAADRGYFIQPTVFGDVKDGMTIAKEEIFGPVMQILKFKTIEEVVGRANDSKYGLAAAVFTKDLDKANYLSQALQAGTVWINCYDVFGAQSPFGGYKMSGSGRELGEYGLQAYTEVKTVTVKVPQKNS
B6: Txnl1 (protein, UniProt O43396 2-289, looked up)
Thioredoxin-like protein 1: VGVKPVGSDPDFQPELSGAGSRLAVVKFTMRGCGPCLRIAPAFSSMSNKYPQAVFLEVDVHQCQGTAATNNISATPTFLFFRNKVRIDQYQGADAVGLEEKIKQHLENDPGSNEDTDIPKGYMDLMPFINKAGCECLNESDEHGFDNCLRKDTTFLESDCDEQLLITVAFNQPVKLYSMKFQGPDNGQGPKYVKIFINLPRSMDFEEAERSEPTQALELTEDDIKEDGIVPLRYVKFQNVNSVTIFVQSNQGEEETTRISYFTFIGTPVQATNMNDFKRVVGKKGESH
B7: Slc9a1 (protein, UniProt Q61165 1-820, looked up)
Sodium/hydrogen exchanger 1: MMLRWSGVWGFHPPRIFPSLLVVVALVGLLPVLRSHGLQHSPTASTIRGSEPPRERSIGDVTTAPSEPLHRPDDHNLTNLIIEHGGKPSRKAFPVLDIDYPHVRTPFEISLWILLACLMKIGFHVIPTISSIVPESCLLIVVGLLVGGLIKGVGETPPFLQSDVFFLFLLPPIILDAGYFLPLRQFTENLGTILIFAVVGTLWNAFFLGGLLYAVCLVGGEQINNIGLLDTLLFGSIISAVDPVAVLAVFEEIHINELLHILVFGESLLNDAVTVVLYHLFEEFASYDSVGISDIFLGFLSFFVVALGGVFVGVVYGVIAAFTSRFTSHIRVIEPLFVFLYSYMAYLSAELFHLSGIMALIASGVVMRPYVEANISHKSHTTIKYFLKMWSSVSETLIFIFLGVSTVAGSHQWNWTFVISTLLFCLIARVLGVLVLTWFINKFRIVKLTPKDQFIIAYGGLRGAIAFSLGYLLDKKHFPMCDLFLTAIITVIFFTVFVQGMTIRPLVDLLAVKKKQETKRSINEEIHTQFLDHLLTGIEDICGHYGHHHWKDKLNRFNKKYVKKCLIAGERSKEPQLIAFYHKMEMKQAIELVESGGMGKIPSAVSTVSMQNIHPKAVTSDRILPALSKDKEEEIRKILRSNLQKTRQRLRSYNRHTLVADPYEEAWNQMLLRRQKARQLEQKITNYLTVPAHKLDSPTLSRARIGSDPLAYEPKADLPVITIDPASPQSPESVDLVNEELKGKVLGLNRGPRVTPEEEEEDEDGIIMIRSKEPSSPGTDDVFTPGSSDSPSSQRIQRCLSDPGPHPEPGEGEPFIPKGQ

system: DYT-TOR1A MEF EVs; test: Quantitative LC-MS/MS proteomics of EVs from drug-treated DYT-TOR1A MEF cultures (ritonavir, salubrinal); format: cell-based, mouse; parameters: key to RTV Corrective Direction / RTV Corrective Direction, Grwd1 / RTV Corrective Direction, Srrm2 / RTV Corrective Direction, Rbm17 / RTV Corrective Direction, Dcaf8 / RTV Corrective Direction, Edil3 / RTV Corrective Direction, Timp3 / RTV Corrective Direction, Heatr3 / RTV Corrective Direction, Brd4 / RTV Corrective Direction, P3h4 / RTV Corrective Direction, Pacsin3 / RTV Corrective Direction, Naa50 / RTV Corrective Direction, Lpar6 / RTV Corrective Direction, Ndrg1 / RTV Corrective Direction, Kntc1 / RTV Corrective Direction, Cdk11b / RTV Corrective Direction, Sumo1 / RTV Corrective Direction, Lsm4 / RTV Corrective Direction, Hmga2 / RTV Corrective Direction, Cstf1 / RTV Corrective Direction, Tes / RTV Corrective Direction, Sbno1 / RTV Corrective Direction, Unc119b / RTV Corrective Direction, Cfdp1 / RTV Corrective Direction, Sec61b: YES = protein abundance effect opposite to DYT/WT; conditions: EV protein abundance, DYT + RTV (ritonavir) vs DYT, direction compared with DYT/WT

Row | Molecule | RTV Corrective Direction
1 | B1 | YES
2 | B2 | YES
3 | B3 | YES
4 | B4 | YES
5 | B5 | YES
6 | B6 | YES
7 | B7 | YES

same assay, conditions: EV protein abundance, ritonavir (RTV)-treated DYT vs DYT

Row | Molecule | DYT + RTV/DYT Cohen's d
8 | B1 | 2.86
9 | B2 | 3.32
10 | B3 | 1.81
11 | B4 | 1.58
12 | B5 | 18.21
13 | B6 | 1.99
14 | B7 | −2.60

system: WT MEF EVs; test: Quantitative LC-MS/MS proteomics of EVs from ISRIB-treated WT MEF cultures; format: cell-based, mouse; parameters: key to ISRIB and DYT Parallel Direction / ISRIB and DYT Parallel Direction, Ctdsp1 / ISRIB and DYT Parallel Direction, Pcdh19 / ISRIB and DYT Parallel Direction, Tspan7 / ISRIB and DYT Parallel Direction, Myo1e / ISRIB and DYT Parallel Direction, Plpp3 / ISRIB and DYT Parallel Direction, Sh3bp4 / ISRIB and DYT Parallel Direction, Dnajc7 / ISRIB and DYT Parallel Direction, Drg1 / ISRIB and DYT Parallel Direction, Maea: YES = protein abundance effect similar to DYT/WT; conditions: EV protein abundance, ISRIB-treated WT vs WT

Row | Molecule | WT + ISRIB/WT Cohen's d
15 | B1 | −1.45
16 | B2 | −1.19
17 | B3 | −3.91
18 | B4 | −3.93
19 | B5 | −7.25
20 | B6 | −0.66
21 | B7 | 0.44

same assay, conditions: EV protein abundance, WT + ISRIB vs WT, direction compared with DYT/WT

Row | Molecule | ISRIB and DYT Parallel Direction
22 | B1 | YES
23 | B2 | YES
24 | B3 | YES
25 | B4 | YES
26 | B5 | YES
27 | B6 | YES
28 | B7 | YES
